Where a chain is given by its changes, count along the chain named.

This is an account of results in patent US20240190948A1 (Chugai, published 2024).

For one experiment, the target named is T1, mouse FcγRIV (mouse, UniProt A0A0B4J1G0 21-203).
T1 construct: also called mFcγRIV; mouse FcγR4
T1 sequence: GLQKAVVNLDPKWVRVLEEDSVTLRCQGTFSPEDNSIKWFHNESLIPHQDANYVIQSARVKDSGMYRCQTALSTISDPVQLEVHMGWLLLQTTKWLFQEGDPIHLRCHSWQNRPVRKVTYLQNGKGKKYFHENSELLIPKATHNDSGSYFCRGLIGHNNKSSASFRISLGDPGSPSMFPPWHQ
As to the kind of experiment: SPR (Biacore T200, pH 7.4): His-tagged FcγR captured, antibody alone or 1:1 immune complex with trimeric CD154 injected at 100 nM; response divided by capture level [d]. Background: Surface plasmon resonance follows binding to a sensor surface in real time, without labels.

In the next experiment the target is T2, human FcγRIIb (human, UniProt P31994 43-217).
T2 construct: also called human FcγR2b
T2 sequence: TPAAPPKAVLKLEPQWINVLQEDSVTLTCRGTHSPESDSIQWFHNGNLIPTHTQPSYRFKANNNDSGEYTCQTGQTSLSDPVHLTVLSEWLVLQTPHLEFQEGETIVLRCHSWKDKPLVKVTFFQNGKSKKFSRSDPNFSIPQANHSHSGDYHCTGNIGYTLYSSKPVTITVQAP
The description is as above.

The next experiment has as its target T3, human FcγRIIIb (NA1) (human, UniProt O75015 17-200).
T3 construct: also called human FcγR3b allelic variant NA1
T3 chain: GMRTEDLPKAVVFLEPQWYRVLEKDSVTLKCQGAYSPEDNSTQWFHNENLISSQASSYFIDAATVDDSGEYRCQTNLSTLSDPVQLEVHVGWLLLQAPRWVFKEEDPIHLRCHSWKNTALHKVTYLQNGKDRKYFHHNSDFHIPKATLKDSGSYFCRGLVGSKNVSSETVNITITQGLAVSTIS
As to the kind of experiment: SPR (Biacore T200, pH 7.4): His-tagged FcγR captured, antibody alone or 1:1 immune complex with trimeric CD154 injected at 100 nM; response divided by capture level [g].

In a further experiment the target is T4, mouse FcγRI (mouse, UniProt P26151 25-297).
T4 construct: also called mFcγRI; mouse FcγR1
T4 sequence: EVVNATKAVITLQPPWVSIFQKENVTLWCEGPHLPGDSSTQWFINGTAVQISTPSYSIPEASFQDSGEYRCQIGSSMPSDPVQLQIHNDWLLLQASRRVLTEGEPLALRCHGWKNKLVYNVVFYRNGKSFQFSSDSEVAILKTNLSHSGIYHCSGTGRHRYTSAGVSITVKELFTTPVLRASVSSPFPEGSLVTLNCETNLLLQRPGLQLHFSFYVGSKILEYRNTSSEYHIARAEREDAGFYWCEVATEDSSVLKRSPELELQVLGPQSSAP
As to the kind of experiment: SPR (Biacore T200, pH 7.4): His-tagged FcγR captured, antibody alone or 1:1 immune complex with trimeric CD154 injected at 100 nM; response divided by capture level [a].

Another experiment deals with T5, human FcγRIIa (167R) (human, UniProt P12318 36-217).
T5 construct: also called human FcγR2a allelic variant 167R
T5 chain: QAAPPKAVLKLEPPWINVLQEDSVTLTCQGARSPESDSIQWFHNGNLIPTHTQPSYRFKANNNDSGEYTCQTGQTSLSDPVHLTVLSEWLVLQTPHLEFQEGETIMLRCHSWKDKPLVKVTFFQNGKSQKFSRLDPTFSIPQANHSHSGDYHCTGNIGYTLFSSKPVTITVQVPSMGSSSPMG
The experiment is described as follows: SPR (Biacore T200, pH 7.4): His-tagged FcγR captured, antibody alone or 1:1 immune complex with trimeric CD154 injected at 100 nM; response divided by capture level [c].

For the next experiment, the target named is T6, mouse FcγRIII (mouse, UniProt P08508 31-215).
T6 construct: also called mFcγRIII; mouse FcγR3
T6 chain: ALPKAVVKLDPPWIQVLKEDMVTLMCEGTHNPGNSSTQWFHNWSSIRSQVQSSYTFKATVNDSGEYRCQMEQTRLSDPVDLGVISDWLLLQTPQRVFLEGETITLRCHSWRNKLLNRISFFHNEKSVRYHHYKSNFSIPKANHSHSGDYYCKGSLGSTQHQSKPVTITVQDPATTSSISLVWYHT
Described as above.

The target of another experiment is T7, human FcγRIIIb (NA2) (human, UniProt O75015 17-200).
T7 construct: also called human FcγR3b allelic variant NA2
T7 chain: T3 chain with R20S, N49S, D66N, V90I
The experiment is described as follows: SPR (Biacore T200, pH 7.4): His-tagged FcγR captured, antibody alone or 1:1 immune complex with trimeric CD154 injected at 100 nM; response divided by capture level [h].

Experiment [1] has as its target T8, Recombinant soluble E protein (0.8E-His) from DENV-3 (DENV-3, UniProt P27915 281-673).
Experiment [2] has as its target T8, Recombinant soluble E protein …. The experiment is described as follows: SPR Biacore T200.
The target in experiment [3] is Zika virus (Asian strain, accession number KF993678) (Zika virus). The experiment is described as follows: cell-based or functional assay.

B1: Anti-CD154 antibody with Fc variant LALA + KAES (SG1095) (antibody, human IgG1, kappa, L234A L235A)
heavy: EVQLVESGGGSVKPGGSLKLSCAASGFTFSDHYMYWVRQTPEKRLEWVAIISGGGSYTSYPDSMKGRFTISRDNAKNILHLQMSSLKSEDTAMYYCTRESNGKPGFAYWGQGTLVTVSAASTKGPSVFPLAPSSKSTSGGTAALGCLVKDYFPEPVTVSWNSGALTSGVHTFPAVLQSSGLYSLSSVVTVPSSSLGTQTYICNVNHKPSNTKVDKRVEPKSCDKTHTCPPCPAPEAAGGPSVFLFPPKPKDTLMISRTPEVTCVVVDVSHEDPEVKFNWYVDGVEVHNAKTKPREEQYNSTYRVVSVLTVLHQDWLNGKEYKCKVSNAALPAPISKTISKAKGQPREPQVYTLPPSREEMTKNQVSLTCLVKGFYPSDIAVEWESNGQPENNYKTTPPVLDSDGSFFLYSKLTVDKSRWQQGNVFSCSVMHEALHNHYTQKSLSLSP
light: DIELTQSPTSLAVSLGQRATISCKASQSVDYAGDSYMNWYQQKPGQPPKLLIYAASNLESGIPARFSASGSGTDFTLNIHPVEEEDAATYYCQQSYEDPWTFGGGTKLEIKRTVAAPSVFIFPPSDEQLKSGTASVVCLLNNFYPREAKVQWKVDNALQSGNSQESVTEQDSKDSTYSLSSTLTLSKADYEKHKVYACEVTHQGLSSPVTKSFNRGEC
For B1, the binding result with mouse FcγRIV, with human FcγRIIb, with human FcγRIIIb (NA1), in the experiment with mouse FcγRI, in the experiment with human FcγRIIa (167R) and with mouse FcγRIII was “no binding (tested: 100 nM)” each time. Also, the binding result in the experiment with human FcγRIIIb (NA2) was “no binding (tested: 100 nM)”.

B2: Anti-CD154 antibody with Fc variant LALA + KWES (SG1088) (antibody, human IgG1, kappa, L234A L235A)
heavy: B1 heavy with A328W
light: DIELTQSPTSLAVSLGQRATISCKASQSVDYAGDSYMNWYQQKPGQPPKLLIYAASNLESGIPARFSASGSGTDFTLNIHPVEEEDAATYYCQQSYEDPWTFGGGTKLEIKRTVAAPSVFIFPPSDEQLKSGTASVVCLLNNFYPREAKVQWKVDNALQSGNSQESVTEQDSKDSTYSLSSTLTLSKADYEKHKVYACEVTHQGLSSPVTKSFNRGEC
On to B2, for which the binding result with mouse FcγRIV, in the experiment with human FcγRIIb, in the experiment with human FcγRIIIb (NA1) and with human FcγRIIIb (NA2) was “no binding (tested: 100 nM)” throughout.

B3: DG_3CH-SG182/3CL-SK1 (antibody, V domains shown)
VH: QVQLVQSGPDVEKPGASVKVSCKASGYTFTSNYIHWVRQAPGQGLEWMGVINPRGGSTASAQKFQGRITMTRDTSTSTVYMELSSLRSDDTAVYYCARGGRALFYDSYTTPRDGGSWWFDPWGQGSLVTVSS
VL: DIQLTQSPSSLSASVGDRVTFTCQASQDIRKYLNWYQQKPGKAPKLLIYDASNLKTGVPSRFSGSGSGTDFTFTISSLQPEDVATYYCQQFDDLPITFGQGTRLQIKR
In the case of B3, the Kd (commonly the free concentration of one partner at which half of the binding sites on the other are occupied at equilibrium, for simple one-to-one binding) in [1] is 6.35 nM.

B4: DG_3CH987-SG182/3CL-SK1 (antibody, V domains shown)
VH: B3 VH with N32Y, T58R, A59R, D89E, R112F
VL: B3 VL
In the case of B4, the Kd in experiment [1] came out at 0.000988 nM.

B5: DG_3CH953-SG182/3CL499-SK1 (antibody, human IgG1, kappa, V domains shown)
VH: B3 VH with T58R, A59R, D89E, R112F
VL: B3 VL with T56F, D93A
Regarding B5, the binding result in experiment [2] is “binds”.

B6: DG_3CH1047-SG1106/3CL-SK1 (antibody)
heavy: QVQLVQSGPDVEKPGASVKVSCKASGYTFTSYYMHWVRQAPGQGLEWMGVINPRGGSRRSAQKFQGRITMTRDTSTSTVYMELSSLRSEDTAVYYCARGGEALFYDSYTTPFDGGSWWFDPWGQGSLVTVSSASTKGPSVFPLAPSSKSTSGGTAALGCLVKDYFPEPVTVSWNSGALTSGVHTFPAVLQSSGLYSLSSVVTVPSSSLGTQTYICNVNHKPSNTKVDKRVEPKSCDKTHTCPPCPAPEAAGGPSVFLFPPKPKDTLMISRTPEVTCVVVDVSHEDPEVKFNWYVDGVEVHNAKTKPREEQYNSTYRVVSVLTVLHQDWLNGKEYKCKVSNAALPAPISKTISKAKGQPREPQVYTLPPSREEMTKNQVSLTCLVKGFYPSDIAVEWESNGQPENNYKTTPPVLDSDGSFFLYSKLTVDKSRWQQGNVFSCSVLHEALHAHYTRKELSLSP
light: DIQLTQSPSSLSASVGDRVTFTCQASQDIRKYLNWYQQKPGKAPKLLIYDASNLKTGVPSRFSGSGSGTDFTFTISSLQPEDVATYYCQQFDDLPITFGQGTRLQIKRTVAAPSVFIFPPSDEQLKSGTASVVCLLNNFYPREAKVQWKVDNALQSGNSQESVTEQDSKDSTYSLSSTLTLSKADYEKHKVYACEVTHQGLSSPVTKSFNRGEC
Regarding B6, in [3], the “EC50 (µg/mL), FRNT neutralization, Average” value was determined as 0.63 µg/mL; the “EC50 (µg/mL), FRNT neutralization, Expt 1” value turned out to be 0.33 µg/mL; the “EC50 (µg/mL), FRNT neutralization, Expt 2” value is 0.93 µg/mL.
